The results in this text go back to patent US20200247894A1 (Regeneron, published 2020).

B1: H4H12886P (antibody, human IgG4 S228P, kappa, V domains shown)
VH: EVQLVESGGGLVKPGGSLRLSCAASGFTFSTAWMSWVRQSPGRGLEWVGRMKSKTDGGTTFYAAPVKGRFTISRDDSKNTLYLQMNSLKTEDTAVYYCTTGLVPAFYKYYGVDVWGQGTTVTVSS
VL: DIQMTQSPSSLSASVGDRITITCQASQDITNYLNWYQQKPGKAPNLLIYDASNLVTGVPSRFSGSGSGTDFTFTILSLQPEDIATYYCQQYDSLLTFGPGTKVDIKR
notes: fully human anti-IL2Rg antibody, human IgG4
B2: H4H12889P (antibody, human IgG4 S228P, kappa, V domains shown)
VH: EVQLVESGGGLVQPGGSLRLSCAASGFIFSSYEMHWVRQAPGKGLEWISYISSSGTTIYYADSVKGRFTISRDNAKNSLYLHMNSLRAEDTAVYYCTRARITGTFDVFDIWGQGTMVTVSS
VL: DIQMTQSPSSLSASVGDRVTITCRASQSISSYLNWYQQKPGKAPKLLIFAASNLQSGVPSRFSGSRSGTDFTLTISSLQPEDFATYYCQQNYNIPYTFGQGTKLEIKR
notes: fully human anti-IL2Rg antibody, human IgG4; also called REGN7257
B3: H4H12863P (antibody, human IgG4 S228P, kappa, V domains shown)
VH: QVQLVESGGGVVQPGRSLRLSCTASGFTFRSYDMYWVRQAPGKGLEWVSVITYDGNNKYYADSVKGRFTISRDNSKNTLFLQMSSLRPEDTAVYYCAKRGLIWVGESFDYWGQGTLVTVSS
VL: DIQMTQSPSTLSASVGDRVTITCRASQSINSWLAWYQQKPGKAPNLLIYKASSLESGVPSRFSGSGSGTEFTLTISSLQPDDFATYYCQQYKSYSWTFGQGTKVEIKR
notes: as for B1
B4: H4H12884P (antibody, human IgG4 S228P, kappa, V domains shown)
VH: QVQLQESGPGLVKPSQTLSLTCTVSGGSISSGGYYWSWIRQHPGKGLEWIGFIYYSGKTYYNPSLKSRLTISVDTSKSQFSLKLRSVTAADTAVYYCARLGYTNSAGWFDPWGQGTLVTVSS
VL: DIQMTQSPSSLSASVGDRVTITCRASQSISSYLNWYQQKPGKAPNLLIYAASSLQSGVPSRFSGSGSGTDFTLTISSLQPEDLATYYCQQSYTTPFTFGPGTKVDIKR
notes: as for B1
B5: H4H12890P (antibody, human IgG4 S228P, kappa, V domains shown)
VH: EVQLVESGGGLVQPGGSLRLSCAASGFTFNNYAMHWVRQAPGKGLEYVSSISSSGGSTYYEDSVKGRFTISRDNSKNTLYLQMGSLRAEDMAVYYCARSFYGSGTYYDTFDMWGQGTMVTVSS
VL: B4 VL with V15I, S31R, N45K, G64A, L83F, T93S, P100Q, V104L, D105E
notes: as for B1
B6: H4H12858P (antibody, human IgG4 S228P, kappa, V domains shown)
VH: EVQLVESGGDLVQPGGSLRLSCTASGFIFRNYAMNWVRQAPGKGLEWLSGILGSNDNTYYVDSVKGRFTISRDNSRNTLYLQMNSLRAEDSAVYYCAKGDAGGFDYWGQGTLVTVSS
VL: DVVMTQSPLSLPVILGQPASISCRSSQSLVSSDGNTYLNWFQQRPGQSPRRLIYKVSNRDSGVPDRFSGSGSGTDFTLKISRVEAEDVGAYYCMQGSYWPPTFGQGTKLEIKR
notes: fully human anti-IL2Rg antibody, human IgG4; also called REGN9433
B7: H4H12871P (antibody, human IgG4 S228P, kappa, V domains shown)
VH: QVQLQESGPGLVKPSQTLSLTCTVSGGSITSGGYYWSWIRQYPGQGLEWIGYIYYSGKTYYNPSFTSRITISVDTSKKQFSLKMSSVTAADTAVYYCARAGFTSSNGWFDPWGQGTLVTVSS
VL: DIQMTQSPSSLSASVGDRVTITCRASQNIRSYLNWYQQKPGKAPKLLIYSASSLQSGVPSRFSGSGSGTDFTLTISSLQPEDFPTYYCQQTYSSPWTFGPGTKVEIKR
notes: fully human anti-IL2Rg antibody, human IgG4; also called REGN9434
B8: H4H12874P (antibody, human IgG4 S228P, kappa, V domains shown)
VH: QVQLVESGGGVVQPGRSLRLSCAASGFNFRNFGMHWVRQAPGKGLEWVAGILYDGSSKYYADSVKDRFTISRDNSKNTLFLQMNSLRAEDTAMYYCAKEEDTAMVPFDSWGPGTLVTVSS
VL: DIQLTQSPSFLSASVGDRVTITCWASQGISSYLAWYQQKPGKAPTLLIYAASTLQSGVPSRFSGSGSGTEFTLTISSLQPEDFASYYCQQLKSYPLTFGGGTKVEIKR
notes: as for B1
B9: H4H12899P (antibody, human IgG4 S228P, kappa, V domains shown)
VH: QVQLVESGGDLVKPGGSLRLSCATSGFTFSDFYMTWIRQAPGKGLEWISYISNSGSIVKYADSVKGRFTISRDNAKNSLYLQMNSLRAEDTAIYYCARFYGDRWGQGTLVTVSS
VL: B8 VL with S31T, Y32F, T45K, E70D, S85T, Y87H, K92N, S93N, L96W, G100Q
notes: as for B1
B10: H4H12900P (antibody, human IgG4 S228P, kappa, V domains shown)
VH: QVQLVESGGGLVKPGGSLRLSCEASGFTFNDFYMTWIRQAPGKGLEWIAYISKSGDKMRYADSVKGRFSTSRDNAKNSLSLQMNSLRAEDTAVYYCARFYGDIWGQGTLVTVSS
VL: B8 VL with G28D, Y32F, A34V, T45N, T53A, Q89E, K92N, S93N, L96W, G100Q
notes: as for B1
B11: H4H12908P (antibody, human IgG4 S228P, kappa, V domains shown)
VH: EVQLVESGGRLVQPGGSLRLSCEASGFTFSNYGMTWVRQAPGKGLEWVSVISGSDNRKYYAESVKGRFTISRDNSKNTLYLQMNSLRAEDTAVYYCAKLGYSRSSKDFYYGMDVWGQGTTVTVSS
VL: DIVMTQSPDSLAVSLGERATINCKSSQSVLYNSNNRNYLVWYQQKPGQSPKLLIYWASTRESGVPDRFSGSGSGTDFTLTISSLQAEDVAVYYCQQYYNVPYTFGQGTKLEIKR
notes: as for B1
B12: H4H12859P (antibody, human IgG4 S228P, kappa, V domains shown)
VH: QVQLVQSGAEVKKPGASVRVSCKASGYTFTDYDIHWVRQAPGHGLEWMGWINPNSGGTNYAQKFQGRVTMTRDTSISTVYMDLSRLRSDDTAVYYCARADYSSSYYYYGMDVWGQGTTVTVSS
VL: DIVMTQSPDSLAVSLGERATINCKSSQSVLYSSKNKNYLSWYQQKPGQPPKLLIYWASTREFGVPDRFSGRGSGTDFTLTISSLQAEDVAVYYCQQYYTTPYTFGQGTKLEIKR
notes: as for B1

Where a chain is given by its changes, count along the chain named.

For one experiment, the target named is T1, human IL-2Rγ endogenously expressed on NK-92 and Jurkat cells (human, UniProt P31785 23-369).
T1 construct: whole, on cells; on cells it stands with the other receptor subunits of the cell line; also called IL-2Rg; CD132
T1 sequence (looked up): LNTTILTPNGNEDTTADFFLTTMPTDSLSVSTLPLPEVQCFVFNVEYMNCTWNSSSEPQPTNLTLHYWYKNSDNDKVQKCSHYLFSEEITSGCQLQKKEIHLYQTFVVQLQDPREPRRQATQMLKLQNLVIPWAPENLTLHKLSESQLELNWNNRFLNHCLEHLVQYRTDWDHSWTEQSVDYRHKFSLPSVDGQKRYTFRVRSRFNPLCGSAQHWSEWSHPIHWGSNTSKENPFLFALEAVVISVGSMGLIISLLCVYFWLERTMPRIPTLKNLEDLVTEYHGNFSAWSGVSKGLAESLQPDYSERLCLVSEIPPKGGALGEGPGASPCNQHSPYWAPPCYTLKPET
Description: flow cytometry, 10 ug/ml antibody, Jurkat cells (endogenous human IL-2Rg). The procedure: (§1) For flow cytometry analyses, the cells were pre-incubated with mouse IgG at 100 μg/ml for 15 minutes at room temperature (RT) to block the binding of the antibodies to Fc receptors. […] Cells were washed, fixed using BD CytoFix™ (BD biosciences, #554655) and analyzed on an IQue® (Intellicyt®) Flow Cytometer or Accuri Flow cytometer (BD). […] The results were analyzed using ForeCyt® (IntelliCyt®) software to determine the geometric means of fluorescence (MFI) for viable cells. Binding ratios were calculated by normalizing the MFI of the test sample by the MFI of the unstained sample.
On to B1, for which the “Binding Ratio (Sample over unstained MFIs)” value (from here on “Binding Ratio”) worked out at 6 and the “Raw MFI” value was 488 MFI.
Taken in the same sequence, the figures for B2 were 19 and 1660 MFI.
For B3, the “Binding Ratio” value was found to be 13 and the “Raw MFI” value amounted to 1170 MFI.
Taken in the same sequence, the figures for B4 were 16 and 1420 MFI.
Taken in the same sequence, the figures for B5 were 6 and 500 MFI.
In the same order, the values of B6 are 1 and 99 MFI.
As to B7, the “Binding Ratio” value was 18 and the “Raw MFI” value turned out to be 1620 MFI.
In the same order, the values of B8 are 6 and 507 MFI.
Taken in the same sequence, the figures for B9 were 1 and 114 MFI.
B10: the “Binding Ratio” value worked out at 1 and the “Raw MFI” value was found to be 110 MFI.
In the same order, the values of B11 are 1 and 86 MFI.
Taken in the same sequence, the figures for B12 were 1 and 89 MFI.

Another experiment addresses T2, mouse IL-2Rγ endogenously expressed on MC/9 cells (mouse, UniProt P34902 23-369).
T2 construct: whole, on cells
T2 sequence (looked up): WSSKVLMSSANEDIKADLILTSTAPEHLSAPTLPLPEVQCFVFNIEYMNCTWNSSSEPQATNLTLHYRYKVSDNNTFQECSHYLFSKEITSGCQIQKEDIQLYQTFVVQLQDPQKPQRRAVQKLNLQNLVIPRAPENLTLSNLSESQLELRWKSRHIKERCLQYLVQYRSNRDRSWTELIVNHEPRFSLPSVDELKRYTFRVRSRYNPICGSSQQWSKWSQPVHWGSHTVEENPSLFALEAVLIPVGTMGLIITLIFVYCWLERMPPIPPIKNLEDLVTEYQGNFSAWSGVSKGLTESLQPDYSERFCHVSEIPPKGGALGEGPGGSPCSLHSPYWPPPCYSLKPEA
Description: flow cytometry, 10 ug/ml antibody, MC/9 cells (endogenous mouse IL-2Rg). How it is done: as §1
Consider B1, for which the “Binding Ratio” value was found to be 1 and the “Raw MFI” value came to 185 MFI.
B2: the “Binding Ratio” value was determined as 1 and the “Raw MFI” value was found to be 91 MFI.
Taken in the same sequence, the figures for B3 were 1 and 185 MFI.
Taken in the same sequence, the figures for B4 were 1 and 172 MFI.
Regarding B5, the “Binding Ratio” value is 1 and the “Raw MFI” value was determined as 170 MFI.
Taken in the same sequence, the figures for B6 were 1 and 199 MFI.
In the same order, the values of B7 are 1 and 184 MFI.
In the same order, the values of B8 are 1 and 202 MFI.
As for B9, the “Binding Ratio” value turned out to be 1 and the “Raw MFI” value is 167 MFI.
Taken in the same sequence, the figures for B10 were 1 and 128 MFI.
In the same order, the values of B11 are 1 and 154 MFI.
Taken in the same sequence, the figures for B12 were 1 and 201 MFI.

For a further experiment, the target named is T1, human IL-2Rγ endogenously expressed on …. Put plainly: flow cytometry, 10 ug/ml antibody, NK-92 cells (endogenous human IL-2Rg). The procedure: as §1
On to B1, for which the “Binding Ratio” value came to 32 and the “Raw MFI” value is 4720 MFI.
Turning to B2, the “Binding Ratio” value was determined as 94 and the “Raw MFI” value was determined as 14100 MFI.
In the same order, the values of B3 are 87 and 13000 MFI.
Taken in the same sequence, the figures for B4 were 90 and 13500 MFI.
Consider B5, for which the “Binding Ratio” value is 30 and the “Raw MFI” value was 4570 MFI.
In the same order, the values of B6 are 2 and 228 MFI.
Taken in the same sequence, the figures for B7 were 92 and 13700 MFI.
Taken in the same sequence, the figures for B8 were 44 and 6580 MFI.
In the case of B9, the “Binding Ratio” value is 18 and the “Raw MFI” value amounted to 2670 MFI.
In the same order, the values of B10 are 28 and 4200 MFI.
Taken in the same sequence, the figures for B11 were 17 and 2540 MFI.
In the same order, the values of B12 are 1 and 176 MFI.
